{
  "source": "patent US20090061443",
  "proteins": {"B1": {"name": "hDOT1L (human DOT1-like protein) (protein)", "chain": "MGEKLELRLKSPVGAEPAVYPWPLPVYDKHHDAAHEIIETIRWVCEEIPDLKLAMENYVLIDYDTKSFESMQRLCDKYNRAIDSIHQLWKGTTQPMKLNTRPSTGLLRHILQQVYNHSVTDPEKLNNYEPFSPEVYGETSFDLVAQMIDEIKMTDDDLFVDLGSGVGQVVLQVAAATNCKHHYGVEKADIPAKYAETMDREFRKWMKWYGKKHAEYTLERGDFLSEEWRERIANTSVIFVNNFAFGPEVDHQLKERFANMKEGGRIVSSKPFAPLNFRINSRNLSDIGTIMRVVELSPLKGSVSWTGKPVSYYLHTIDRTILENYFSSLKNPKLREEQEAARRRQQRESKSNAATPTKGPEGKVAGPADAPMDSGAEEEKAGAATVKKPSPSKARKKKLNKKGRKMAGRKRGRPKKMNTANPERKPKKNQTALDALHAQTVSQTAASSPQDAYRSPHSPFYQLPPSVQRHSPNPLLVAPTPPALQKLLESFKIQYLQFLAYTKTPQYKASLQELLGQEKEKNAQLLGAAQQLLSHCQAQKEEIRRLFQQKLDELGVKALTYNDLIQAQKEISAHNQQLREQSEQLEQDNRALRGQSLQLLKARCEELQLDWATLSLEKLLKEKQALKSQISEKQRHCLELQISIVELEKSQRQQELLQLKSCVPPDDALSLHLRGKGALGRELEPDASRLHLELDCTKFSLPHLSSMSPELSMNGQAAGYELCGVLSRPSSKQNTPQYLASPLDQEVVPCTPSHVGRPRLEKLSGLAAPDYTRLSPAKIVLRRHLSQDHTVPGRPAASELHSRAEHTKENGLPYQSPSVPGSMKLSPQDPRPLSPGALQLAGEKSSEKGLRERAYGSSGELITSLPISIPLSTVQPNKLPVSIPLASVVLPSRAERARSTPSPVLQPRDPSSTLEKQIGANAHGAGSRSLALAPAGFSYAGSVAISGALAGSPASLTPGAEPATLDESSSSGSLFATVGSRSSTPQHPLLLAQPRNSLPASPAHQLSSSPRLGGAAQGPLPEASKGDLPSDSGFSDPESEAKRRIVFTITTGAGSAKQSPSSKHSPLTASARGDCVPSHGQDSRRRGRRKRASAGTPSLSAGVSPKRRALPSVAGLFTQPSGSPLNLNSMVSNINQPLEITAISSPETSLKSSPVPYQDHDQPPVLKKERPLSQTNGAHYSPLTSDEEPGSEDEPSSARIERKIATISLESKSPPKTLENGGGLAGRKPAPAGEPVNSSKWKSTFSPISDIGLAKSADSPLQASSALSQNSLFTFRPALEEPSADAKLAAHPRKGFPGSLSGADGLSPGTNPANGCTFGGGLAADLSLHSFSDGASLPHKGPEAAGLSSPLSFPSQRGKEGSDANPFLSKRQLDGLAGLKGEGSRGKEAGEGGLPLCGPTDKTPLLSGKAAKARDREVDLKNGHNLFISAAAVPPGSLLSGPGLAPAASSAGGAASSAQTHRSFLGPFPPGPQFALGPMSLQANLGSVAGSSVLQSLFSSVPAAAGLVHVSSAATRLTNSHAMGSFSGVAGGTVGGN"}},
  "target": "T1, Flag-CALM-AF10 fusion protein (wild-type), Q13492",
  "T1 chain": "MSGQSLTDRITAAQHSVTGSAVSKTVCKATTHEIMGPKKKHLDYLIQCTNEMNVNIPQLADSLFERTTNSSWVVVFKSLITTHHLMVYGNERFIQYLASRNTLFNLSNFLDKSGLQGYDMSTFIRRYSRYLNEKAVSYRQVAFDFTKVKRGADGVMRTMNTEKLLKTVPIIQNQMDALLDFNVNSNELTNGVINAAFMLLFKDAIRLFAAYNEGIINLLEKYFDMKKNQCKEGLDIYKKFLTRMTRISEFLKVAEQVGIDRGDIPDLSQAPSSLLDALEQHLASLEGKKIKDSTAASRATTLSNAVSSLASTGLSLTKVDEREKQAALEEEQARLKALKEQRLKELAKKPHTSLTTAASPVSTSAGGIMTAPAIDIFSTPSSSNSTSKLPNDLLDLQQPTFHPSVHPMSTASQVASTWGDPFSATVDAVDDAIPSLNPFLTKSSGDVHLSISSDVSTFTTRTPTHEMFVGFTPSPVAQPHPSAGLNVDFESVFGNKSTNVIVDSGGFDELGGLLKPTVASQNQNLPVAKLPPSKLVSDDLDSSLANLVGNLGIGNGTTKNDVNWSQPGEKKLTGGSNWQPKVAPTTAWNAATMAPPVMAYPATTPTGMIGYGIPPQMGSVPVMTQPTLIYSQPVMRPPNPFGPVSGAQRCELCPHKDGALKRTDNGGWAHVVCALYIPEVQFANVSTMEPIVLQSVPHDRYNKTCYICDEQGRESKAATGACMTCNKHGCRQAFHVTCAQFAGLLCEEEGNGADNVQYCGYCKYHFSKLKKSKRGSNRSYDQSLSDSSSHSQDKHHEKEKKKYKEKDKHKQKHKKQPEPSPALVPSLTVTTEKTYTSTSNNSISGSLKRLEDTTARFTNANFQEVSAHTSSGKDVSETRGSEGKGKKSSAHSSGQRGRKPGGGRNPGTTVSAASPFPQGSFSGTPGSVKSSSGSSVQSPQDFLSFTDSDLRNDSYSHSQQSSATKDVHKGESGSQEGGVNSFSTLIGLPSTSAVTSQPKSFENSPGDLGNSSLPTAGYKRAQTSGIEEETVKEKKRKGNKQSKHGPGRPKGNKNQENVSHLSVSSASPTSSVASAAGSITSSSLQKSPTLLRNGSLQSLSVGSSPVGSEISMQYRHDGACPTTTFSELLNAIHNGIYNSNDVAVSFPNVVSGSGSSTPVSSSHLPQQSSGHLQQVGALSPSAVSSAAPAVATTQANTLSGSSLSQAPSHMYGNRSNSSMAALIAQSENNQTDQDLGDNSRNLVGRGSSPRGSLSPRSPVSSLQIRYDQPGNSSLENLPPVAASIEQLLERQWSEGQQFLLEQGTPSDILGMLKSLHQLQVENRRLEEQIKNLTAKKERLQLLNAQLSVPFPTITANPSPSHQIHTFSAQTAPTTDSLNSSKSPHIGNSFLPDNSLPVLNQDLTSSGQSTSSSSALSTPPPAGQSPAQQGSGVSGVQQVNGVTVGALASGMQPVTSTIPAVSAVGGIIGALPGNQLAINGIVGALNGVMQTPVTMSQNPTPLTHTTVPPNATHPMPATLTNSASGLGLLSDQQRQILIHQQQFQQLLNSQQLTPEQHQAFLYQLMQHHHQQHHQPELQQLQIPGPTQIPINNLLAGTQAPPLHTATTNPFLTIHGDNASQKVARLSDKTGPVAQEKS",
  "data": [
    {"protein": "B1", "values": [
      {"measurement": "confocal microscopy of co-expressed hDOT1L and CALM-AF10", "value": "High resolution analysis of the proteins indicates that they colocalize in the nucleus"}
    ]}
  ]
}
